Target: hTau40 (Tau, 2N4R) 1-441 (UniProt P10636)
Test: fluorescence lifetime (TCSPC) over time
[1] = reference: unlabelled P0-Tau (E. coli), sites S202,T205,T212,S214,T231,S235,S262,S356,S396,S404,Y310,S324,T153

| other: final average lifetime [1] | Substance | other results |
| --- | --- | --- |
| stronger; reference 3.8 | hTau40 (Tau, 2N4R) 1-441 (from UniProt P10636-8) unlabelled P12-Tau (Sf9) |  |
| stronger; reference 3.8 | hTau40 (Tau, 2N4R) 1-441 (from UniProt P10636-8) unlabelled P20-Tau (Sf9 + okadaic acid) |  |
|  | hTau40 (Tau, 2N4R) 1-441 (from UniProt P10636-8) P20-Tau (Sf9 cells treated with okadaic acid) | other: final average lifetime (reference: P12-Tau (Sf9, no okadaic acid)): stronger; reference 0.6 |
|  | hTau40 (Tau, 2N4R) 1-441 (from UniProt P10636-8) P12-Tau incubated with alkaline phosphatase (P4-Tau) | other: final average lifetime (reference: P12-Tau untreated, sites S202,T205,T212,S214,T231,S235,S262,S356,S396,S404): weaker; reference 0.6 |

Reference: paper PMC4256367
